Reference: patent US20050064507

What was measured:
[1] = target: T1, ARHGAP4 peptide PLRKSSLKKGGR (SEQ ID NO:193) (not fully specified)
T1 chain: PLRKSSLKKGGR

[2] = target: T2, BCL10 peptide SCRTSSRKRAGK (SEQ ID NO:216) (not fully specified)
T2 chain: SCRTSSRKRAGK

[3] = target: T3, BRCA1 peptide LRRKSSTRHIHA (SEQ ID NO:187) (not fully specified)
T3 chain: LRRKSSTRHIHA

[4] = target: T4, BTK peptide PGSSHRKTKK (SEQ ID NO:195) (not fully specified)
T4 chain: PGSSHRKTKK

[5] = target: T5, CHD1 peptide EGRRSRSRRYSG (SEQ ID NO:205) (not fully specified)
T5 chain: EGRRSRSRRYSG

[6] = target: T6, CLK2 peptide RRRRRRSRTFSR (SEQ ID NO:177) (not fully specified)
T6 chain: RRRRRRSRTFSR

[7] = target: T7, CLK2 peptide RRRRSRTFSRS (SEQ ID NO:178) (not fully specified)
T7 chain: RRRRSRTFSRS

[8] = target: T8, CLK3 peptide RWKRRRSYSREH (SEQ ID NO:196) (not fully specified)
T8 chain: RWKRRRSYSREH

[9] = target: T9, FLJ20719 peptide RRGRRSTKKRRR (SEQ ID NO:171) (not fully specified)
T9 chain: RRGRRSTKKRRR

[10] = target: T10, GPR105 peptide KSSRNSTSVKKK (SEQ ID NO:206) (not fully specified)
T10 chain: KSSRNSTSVKKK

[11] = target: T11, HePTP peptide EQQRRALSFRQ (SEQ ID NO:200) (not fully specified)
T11 chain: EQQRRALSFRQ

[12] = target: T12, LRMP peptide RFSRRSSSWRIL (SEQ ID NO:204) (not fully specified)
T12 chain: RFSRRSSSWRIL

[13] = target: T13, Lyp peptide ILRPSKSVKLRS (SEQ ID NO:197) (not fully specified)
T13 chain: ILRPSKSVKLRS

[14] = target: T14, MAST3 peptide ARRSKRSRRRET (SEQ ID NO:183) (not fully specified)
T14 chain: ARRSKRSRRRET

[15] = target: T15, MAST3 peptide TQDRRKSLFKKI (SEQ ID NO:201) (not fully specified)
T15 chain: TQDRRKSLFKKI

[16] = target: T16, MAST4 peptide VRRSKKSKKKES (SEQ ID NO:203) (not fully specified)
T16 chain: VRRSKKSKKKES

[17] = target: T17, NKTR peptide RSRSYSRSRSR (SEQ ID NO:211) (not fully specified)
T17 chain: RSRSYSRSRSR

[18] = target: T18, NPAT peptide FRASSRSTTK (SEQ ID NO:184) (not fully specified)
T18 chain: FRASSRSTTK

[19] = target: T19, PCTK2 peptide KKFKRRLSLTLR (SEQ ID NO:185) (not fully specified)
T19 chain: KKFKRRLSLTLR

[20] = target: T20, SHP-1 peptide DKEKSKGSLKRK (SEQ ID NO:209) (not fully specified)
T20 chain: DKEKSKGSLKRK

[21] = target: T21, SOLH peptide PLRRRESMHVEQ (SEQ ID NO:210) (not fully specified)
T21 chain: PLRRRESMHVEQ

[22] = target: T22, TIAM1 peptide AMSRSASKRRSR (SEQ ID NO:168) (not fully specified)
T22 chain: AMSRSASKRRSR

[23] = target: T23, WNK1 peptide KRHYRKSVRSRS (SEQ ID NO:179) (not fully specified)
T23 chain: KRHYRKSVRSRS

[24] = target: T24, WNK1 peptide RRRRPTKSKGSK (SEQ ID NO:198) (not fully specified)
T24 chain: RRRRPTKSKGSK

[25] = target: T25, absent in melanoma 1 peptide RSGRRRGSQKS (SEQ ID NO:173) (not fully specified)
T25 chain: RSGRRRGSQKS

[26] = target: T26, beta-arrestin2 peptide HKRNSVRLVIR (SEQ ID NO:191) (not fully specified)
T26 chain: HKRNSVRLVIR

[27] = target: T27, casein kinase I gamma 2 peptide KRRKRKSLQRHK (SEQ ID NO:194) (not fully specified)
T27 chain: KRRKRKSLQRHK

[28] = target: T28, forkhead (Drosophila)-like 16 peptide RRERSRSRRKQ (SEQ ID NO:176) (not fully specified)
T28 chain: RRERSRSRRKQ

[29] = target: T29, gap-43 peptide SFRGHITRKKLK (SEQ ID NO:207) (not fully specified)
T29 chain: SFRGHITRKKLK

[30] = target: T30, nucleolar phosphoprotein p130 peptide TKKKRGSYRGGS (SEQ ID NO:182) (not fully specified)
T30 chain: TKKKRGSYRGGS

[31] = target: T31, peptide EEAEHKATKARLADK (SEQ ID NO:75) (not fully specified)
T31 chain: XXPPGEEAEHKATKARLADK

[32] = target: T32, prostaglandin E receptor 4 peptide DFRRRRSFRRIA (SEQ ID NO:186) (not fully specified)
T32 chain: DFRRRRSFRRIA

[33] = target: T33, ribosomal protein S6 peptide TGERKRKSVRG (SEQ ID NO:181) (not fully specified)
T33 chain: TGERKRKSVRG

[34] = target: T34, serine/threonine-protein kinase PRP4 peptide GRRRRSRSKVK (SEQ ID NO:189) (not fully specified)
T34 chain: GRRRRSRSKVK

[35] = target: T35, serine/threonine-protein kinase PRP4 peptide RGRRSRSRLRRR (SEQ ID NO:199) (not fully specified)
T35 chain: RGRRSRSRLRRR

[36] = target: T36, serine/threonine-protein kinase PRP4 peptide TKKRSKSRSKER (SEQ ID NO:215) (not fully specified)
T36 chain: TKKRSKSRSKER

[37] = target: T37, supervillin peptide VMKRKFSLRAAE (SEQ ID NO:202) (not fully specified)
T37 chain: VMKRKFSLRAAE

B1: PKC-theta (protein)
chain: MSPFLRIGLSNFDCGSCQSCQGEAVNPYCAVLVKEYVESENGQMYIQKKPTMYPPWDSTFDAHINKGRVMQIIVKGKNVDLISETTVELYSLAERCRKNNGKTEIWLELKPQGRMLMNARYFLEMSDTKDMNEFETEGFFALHQRRGAIKQAKVHHVKCHEFTATFFPQPTFCSVCHEFVWGLNKQGYQCRQCNAAIHKKCIDKVIAKCTGSAINSRETMFHKERFKIDMPHRFKVYNYKSPTFCEHCGTLLWGLARQGLKCDACGMNVHHRCQTKVANLCGINQKLMAEALAMIESTQQARCLRDTEQIFREGPVEIGLPCSIKNEARPPCLPTPGKREPQGISWESPLDEVDKMCHLPEPELNKERPSLQIKLKIEDFILHKMLGKGSFGKVFLAEFKKTNQFFAIKALKKDVVLMDDDVECTMVEKRVLSLAWEHPFLTHMFCTFQTKENLFFVMEYLNGGDLMYHIQSCHKFDLSRATFYAAEIILGLQFLHSKGIVYRDLKLDNILLDKDGHIKIADFGMCKENMLGDAKTNTFCGTPDYIAPEILLGQKYNHSVDWWSFGVLLYEMLIGQSPFHGQDEEELFHSIRMDNPFYPRWLEKEAKDLLVKLFVREPEKRLGVRGDIRQHPLFREINWEELERKEIDPPFRPKVKSPFDCSNFDKEFLNEKPRLSFADRALINSMDQNMFRNFSFMNPGMERLIS
Protein B1 has an in vitro phosphorylation (% of best substrate) [1] of 35, an in vitro phosphorylation (% of best substrate) [2] of 11 and an in vitro phosphorylation (% of best substrate) [3] of 48. It also gave an in vitro phosphorylation (% of best substrate) [4] of 33, an in vitro phosphorylation (% of best substrate) [5] of 22 and an in vitro phosphorylation (% of best substrate) [6] of 66. For the same protein, the in vitro phosphorylation (% of best substrate) [7] was 65, the in vitro phosphorylation (% of best substrate) [8] was 32 and the in vitro phosphorylation (% of best substrate) [9] was 92. The in vitro phosphorylation (% of best substrate) [10] was 19, the in vitro phosphorylation (% of best substrate) [11] was 26 and the in vitro phosphorylation (% of best substrate) [12] was 22. For the same protein, the in vitro phosphorylation (% of best substrate) [13] was 32, the in vitro phosphorylation (% of best substrate) [14] was 55 and the in vitro phosphorylation (% of best substrate) [15] was 25. The in vitro phosphorylation (% of best substrate) [16] was 24, the in vitro phosphorylation (% of best substrate) [17] was 16 and the in vitro phosphorylation (% of best substrate) [18] was 54. For the same protein, the in vitro phosphorylation (% of best substrate) [19] was 51, the in vitro phosphorylation (% of best substrate) [20] was 17 and the in vitro phosphorylation (% of best substrate) [21] was 16. For the same protein, the in vitro phosphorylation (% of best substrate) [22] was 100, the in vitro phosphorylation (% of best substrate) [23] was 65 and the in vitro phosphorylation (% of best substrate) [24] was 28. It also gave an in vitro phosphorylation (% of best substrate) [25] of 85, an in vitro phosphorylation (% of best substrate) [26] of 38 and an in vitro phosphorylation (% of best substrate) [27] of 34. It also gave an in vitro phosphorylation (% of best substrate) [28] of 66, an in vitro phosphorylation (% of best substrate) [29] of 18 and an in vitro phosphorylation (% of best substrate) [30] of 61. It also gave a Peptide phosphorylation by PKC-theta [31] of 0, an in vitro phosphorylation (% of best substrate) [32] of 50 and an in vitro phosphorylation (% of best substrate) [33] of 62. For the same protein, the in vitro phosphorylation (% of best substrate) [34] was 43, the in vitro phosphorylation (% of best substrate) [35] was 27 and the in vitro phosphorylation (% of best substrate) [36] was 12. It also gave an in vitro phosphorylation (% of best substrate) [37] of 24.
